Reference: patent US6423503 (HYBRITECH, dated 2002)

T1: α1antichymotrypsin (ACT) (human, UniProt P01011 24-423)
T1 construct: Used in excess in the incubation with PZ-N PSA
T1 sequence (looked up): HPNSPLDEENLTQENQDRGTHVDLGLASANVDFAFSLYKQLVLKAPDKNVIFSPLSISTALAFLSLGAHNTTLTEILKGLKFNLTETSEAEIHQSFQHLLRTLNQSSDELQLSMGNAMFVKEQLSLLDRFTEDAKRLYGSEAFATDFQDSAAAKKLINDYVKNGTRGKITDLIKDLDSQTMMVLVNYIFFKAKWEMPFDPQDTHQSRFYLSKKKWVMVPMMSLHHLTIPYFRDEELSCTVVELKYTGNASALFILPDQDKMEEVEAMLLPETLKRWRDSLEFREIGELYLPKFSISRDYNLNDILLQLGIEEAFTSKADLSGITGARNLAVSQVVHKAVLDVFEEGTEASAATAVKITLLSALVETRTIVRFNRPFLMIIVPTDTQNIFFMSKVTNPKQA


Molecular target: T1, α1antichymotrypsin (ACT)
Assay: incubation with excess ACT, HIC-HPLC, N-terminal sequencing
Procedure: Figure 4: FIG. 4 is HIC-HPLC profile of the reaction mixture of PZ-N PSA incubated with excess ACT. […] Peak 2 is the residual excess active ACT. Peak 3 is the covalent PSA-ACT complex.
The original profile of this PZ-N sample is seen in FIG. 1. […] Peak 2 is the residual excess active ACT remaining after incubation. […] The [−2]pPSA is a truncated form of pPSA which contains the last two amino acids of the 7 amino acid pro leader peptide. PPSA is expressed with a heptapeptide pro leader sequence consisting of APLILSR. Thus, the [−2] pPSA contains the serine-arginine dipeptide on the N-terminal isoleucine of mature PSA. The minor peak eluting at 12 min contains the [−4]pPSA. The retention time of [−4]pPSA has been reported previously (10).

binding result | Binder
no binding | [-2]pPSA (enzyme, also called [-2]proPSA) not shown
no binding | [-1]pPSA (enzyme) not shown
no binding | [+5]PSA (enzyme, I equated '[+5]PSA' with 'PSA clipped after Gly4'; also called PSA clipped after Gly4) not shown
no binding | [-4]pPSA (enzyme, also called [-4]proPSA) not shown
